assay: soluble on expression in E. coli; label from the status in PepcDB or PDB records

Row | Sequence | soluble on expression in E. coli
1 | MSDLFIHPELRFHSYGTWLRRRFGCNVSKVNVDGGFTCPNRDGSRGTGGCIYCDNASFSPGGTVPDKSIELQMAEGMAYHRQRLGSEKFIIYFQKFTNTYAPAARLRDLYTRALSHPDVVGISVGTRPDALADEALELLADLAQEHYVCIELGLQSMDDAILERINRGHTLDEYLRTVDRIAGRGIALCTHLIYGFPGETREGFLKTAHLLAGLPVDSVKLHQLHAVKGTRLAELYHRREFVPITLAEYVTTACDFLELLPPRI | not soluble
2 | MSLKFVGIVGSNAEQSYNRMLLEFIRKNFKTKFELEVLEIDDIPMFNQDQNWEESFQLRLLNNKITRADGVIIATPEHNHTITAALKSVLEWLSFAVHPLENKPVMIVGASYYDQGTSRAQIHLRKILDAPGVNAYTLPGNEFLLGKAKEAFDDNGNIINPGTVQFLETCLDNFIKYVGVVSSLRKPKAIESEDLYCQGQIDTTITGIDPDDPDWLDKAAEKVNAVEGDAYVKLDNGLLTVNQLNMFLNAMPFELTYADDNNQFLYYNNNHPDPDTMLGKRVREQVGNRMATVHGSLPPARMKNVEWVIGTLRNGNQEYVRTVVPGTPPEVINTHNYQAMYYPDGSYAGINEIIFNFKPWLDWYLQTTGQRLVGGTTAAPGASAVDATSSASTSTGDAPVDQATDATSGASEHEGHHHHHH | soluble
3 | MRNPFERMPTVLTADELIDKAFRRAEKAASSFKPRGNKVKKARLREELRVRTVSNVVRDNLRKVLERTPGLSTLPKFYQELVDVLVDRDTFHKAMAGIDWAIRIIRELEERYVERIRYSNDPNEIAELRRQFYGRVASVLRDIDDRLRYLNKAREVLKDLPVVDLEIPTVVIAGHPNVGKSTLLKALTTAKPEIASYPFTTRGINVGQFEDGYFRYQIIDTPGLLDRPISERNEIEKQAILALRYLGNLIIYIFDPSEHCGFPLEEQIHLFEEVHGEFKDLPFLVVINKIDVADEENIKRLEKFVKEKGLNPIKISALKGTGIDLVKEEIIKTLRPLAEKVAREKIERELRRYRSYL | soluble
4 | MEGISKPMERYDSVVFAGMKQDGTIEFIKVYALNEDLAITILDQFLRENNLHPSDFVVIQRGLEDIKGKDIISTRTEEDLSAMLARLGLRLVSNGVLHTRGAEKIYQITAISKSLIERLQGEDKDKVSTIIKEEISIDFSNLKLPEKYMKKLLLLSLMEDTFILNRAELNVPEVIKRAVKGVVSIPRLIERDNIIIKVFDEELHTVQGSYLDRVIITPPVVHWDAHIDELDSFSFQEVEENVYEPPLFVKAMKGFLVLTEPPRDLVVMLLKLKRRGEVKVSLKGRQIRIPLNFTLVVDTKYPERYSGLKFPIRINLPPFDDETFAQMLSMVLGTKVPQDLVAMFPEEYKTFLGVEILSNLWKKLRKRGRKSEIELLKEMATIVTGGII | soluble
5 | SLKIDTHAHIFLKKLNTVANARYKPDYDASFKDYKANLDHYDFNKGVLVQPSFLGIDNEFLLQSIEKDENIKAIVVVDENIKFDELKKLKERKACGVRLNLIGKELPNFKSMVWTQFFENLSKLKMQIEIQRDLDNNLVDIVENLIPYGCNIVIDHLARANANLTNLEDLICLKNSRIFFKISGFYRAKIDYANNEQAVKFAKKIYEILKEHFPLSNFVFGSDWPHTNFEANINFSSALVAFNEVVVSKKEQEQILGDNACALFGF | soluble
6 | RLVLAGNGMAGIRCIEEVLKLNRHMFEIVIFGSEPHPNYNRILLSSVLQGEASLDDITLNSKDWYDKHGITLYTGETVIQIDTDQQQVITDRKRTLSYDKLIVATGSSPHILPIPGADKKGVYGFRTIEDCQALMNMAQHFQKAAVIGAGLLGLEAAVGLQHLGMDVSVIHHSAGIMQKQLDQTAARLLQTELEQKGLTFLLEKDTVSISGATKADRIHFKDGSSLKADLIVMAAGVKPNIELAVSAGIKVNRGIIVNDFMQTSEPNIYAVGECAEHNGTVYGLVAPLYEQGKALASHICGVPCEEYQGSAPSAALKIAGIDVWSAGKIQEDERTTSIKIYDEQAGVYKKALFVDDKLRVILFGDTRDKQRLLDSLLKQRDISIAKKQIIEPETSGPLFESMPSSETICQCNTVTKGAIEDAVHTNSLTTVEEVKHCTKATGSCGGCKPLVEDLLRYMTNSEYTKPASTPSFCSCTDFTEDDIIAELQRRPFTNPAEVMNQLDWKTKNGCSTCVPAIQYYLEMLYPGFVQPEPATEETCILIPQMYGGRTNAEQLRTIANIIEAYSIPDVSITHGQRLKLSGIKPADLPNMKKDLKMPVYTNEHRHALQSIKACTCGQNRSIQQLAAQIERQLEMLPLPAPISISLSCETDCTEAALQDVGAIRTQAGWDIHIGGVRGTHARSGALFCVTENEDSTAGMIKGLIQYYRETDHYLEGVHQWIDRLGIVHIREVLFEEDLRAQLLESLQTDLSLIQNPTVETGAYKK | not soluble

From the DeepSol protein solubility set
